Assay results: publication PMC3852661 (2013)
Where no end group is shown, it is not given here. The star is where a group is joined. 5FAM = O=C1OC2(c3ccc(O)cc3Oc3cc(O)ccc32)c2ccc(C(=O)*)cc21

Legend:
Assay in all cases: MST
MBP-SUFU-SH = MBP-SUFU-SH (human, UniProt Q9UMX1 32-278; Q9UMX1 361-483)
MBP-SUFU-FL = molecular target: T1, MBP-SUFU-FL (human, UniProt Q9UMX1 32-483)
T1 chain: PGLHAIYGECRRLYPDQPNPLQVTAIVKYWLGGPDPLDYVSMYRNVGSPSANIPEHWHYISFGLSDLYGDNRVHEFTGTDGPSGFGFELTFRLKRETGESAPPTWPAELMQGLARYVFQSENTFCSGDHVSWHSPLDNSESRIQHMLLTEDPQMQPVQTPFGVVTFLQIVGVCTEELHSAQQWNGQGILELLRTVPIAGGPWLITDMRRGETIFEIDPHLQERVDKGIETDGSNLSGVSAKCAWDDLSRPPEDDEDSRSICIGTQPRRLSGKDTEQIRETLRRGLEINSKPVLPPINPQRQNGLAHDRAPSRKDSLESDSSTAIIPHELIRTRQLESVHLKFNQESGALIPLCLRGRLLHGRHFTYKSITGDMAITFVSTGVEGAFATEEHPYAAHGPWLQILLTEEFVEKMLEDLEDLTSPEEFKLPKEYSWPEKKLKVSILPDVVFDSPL

MBP-SUFU-Δ = molecular target: T2, MBP-SUFU-Δ (human, UniProt Q9UMX1 32-278; Q9UMX1 361-483)
T2 chain: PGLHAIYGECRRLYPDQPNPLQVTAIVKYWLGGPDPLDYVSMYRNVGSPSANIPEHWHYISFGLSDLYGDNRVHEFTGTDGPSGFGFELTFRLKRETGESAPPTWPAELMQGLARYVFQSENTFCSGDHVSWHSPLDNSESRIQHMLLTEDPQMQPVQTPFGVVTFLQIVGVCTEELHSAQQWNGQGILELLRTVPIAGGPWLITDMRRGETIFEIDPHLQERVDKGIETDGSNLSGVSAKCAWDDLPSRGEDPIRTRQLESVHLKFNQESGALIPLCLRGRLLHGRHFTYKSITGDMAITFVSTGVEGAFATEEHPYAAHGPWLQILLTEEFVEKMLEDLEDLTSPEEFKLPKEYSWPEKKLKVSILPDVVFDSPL

B1: FAM-GLI1p (peptide)
peptide: 5FAM-TSPGGSYGHLSIGTMSP
Kd (MBP-SUFU-SH): 4.22 µM
Kd (MBP-SUFU-FL): 4.5 µM
Kd (MBP-SUFU-Δ): 4.47 µM
